B1: PtxS (natural protein)
chain: MNGSVLPSRGRVTINQVAEAAGVSKASVSRYIGGDRQLLADATARRIERAIDQLDYRPNQMARGLKRGRTRLIGMLVADILNPYSVAVMHGVETACREHGYSLVVCNTDRDDEQERHHLAALQSYNVEGLIVNTLGHHPGELRALHRELPMVLVDRQLAELDTDLVGLDNADAVEQALDHLQHRGFRDILLVTEPLDGTSSRIERVQAFNASIGRRPALKGQVLQTDDFFRDGLRAFLSASGPGPKALFTCNGVATLCATRQLRDLGCRLFDEVGLLALDELDWYPLVGSGITALAQPTDEIGRTAFERLLARLEGDREPARRVTFPAQLIVRGSTHPRG
notes: PtxS, LacI family transcriptional regulator of Pseudomonas aeruginosa PAO1; ptxS gene amplified from chromosomal DNA and cloned NheI/XhoI into pET24b(+); The NheI/XhoI cloning into pET24b(+) may add a few vector residues at both ends; source: E. coli BL21 (DE3), purified (His-Trap chelating column); not shown: His6, C-terminal, kept
B2: PtxR (natural protein)
chain: MSAALERLNHLNLNHLYAFVAVAEHNSFTAAAEALGLSKSLLSEQLRRLEADLGIQLLTRTTRRMTLTDRGELLFGVAQRMLGELDGALSDVRDLQGEPSGRLRITAPQDFVKWHISSVSAAFIRQFPKVQVEMLADDQFSDLVGQRIDLAVRIGWPRDSGLHASKLCDFQQVAVATPGYLAGLPPVLQPHDLARCEWIGHTRLSTPWTWTFERQRERATVQTRGRLLANNTLAVYRLVLDGAGVSVLPSFLVAREIARGRLVRLLPGWRLPQGGIYALYPSARYMPVRVRAFIESLREHLGREPFRLAQSE
notes: PtxR, LysR-type transcriptional regulator of Pseudomonas aeruginosa PAO1; ptxR gene amplified from chromosomal DNA and cloned NheI/XhoI into pET24b(+); The NheI/XhoI cloning into pET24b(+) may add a few vector residues at both ends; source: E. coli BL21 (DE3), purified (His-Trap chelating column); not shown: His6, C-terminal, kept
B3: PtoxA 50-mer (-58 to -8) (dsDNA)
DNA 1: GATATCGGCTGCTGGCCAGGGGCGCCAGCGCCGACAGCCTCGTGCTTCAA
DNA 2: TTGAAGCACGAGGCTGTCGGCGCTGGCGCCCCTGGCCAGCAGCCGATATC
B4: PtoxA 50-mer mutant operator (dsDNA)
DNA 1: GATATCGGCTGCTGGCCAGGCCGACAGCCTCGTGCTTCAA
DNA 2: TTGAAGCACGAGGCTGTCGGCCTGGCCAGCAGCCGATATC

How the values were obtained:
[1] = biological target: T1, PtxR (Pseudomonas aeruginosa PAO1) (UniProt P72131); assay: EMSA; conditions: ITC: 50 mM HEPES pH 7.9, 300 mM NaCl, 1 mM DTT, 10% glycerol, 20 C. EMSA/footprint: 50 mM Tris-HCl pH 7.5, 10 mM NaCl, 0.5 M Mg acetate (so in the source), 0.1 mM …
T1 sequence: B2 chain

[2] = biological target: T2, PtxS (Pseudomonas aeruginosa PAO1) (UniProt G3XD97); assay: EMSA; conditions: ITC: 50 mM HEPES pH 7.9, 300 mM NaCl, 1 mM DTT, 10% glycerol, 20 C. EMSA/footprint: 50 mM Tris-HCl pH 7.5, 10 mM NaCl, 0.5 M Mg acetate (so in the source), 0.1 mM …
T2 sequence: B1 chain

[3] = biological target: T1, PtxR (Pseudomonas aeruginosa PAO1); assay: DNase I footprinting; conditions: ITC: 50 mM HEPES pH 7.9, 300 mM NaCl, 1 mM DTT, 10% glycerol, 20 C. EMSA/footprint: 50 mM Tris-HCl pH 7.5, 10 mM NaCl, 0.5 M Mg acetate (so in the source), 0.1 mM …
[4] = biological target: T3, PtxR;PtxS (Pseudomonas aeruginosa PAO1;Pseudomonas aeruginosa PAO1) (UniProt P72131+G3XD97); assay: DNase I footprinting; conditions: ITC: 50 mM HEPES pH 7.9, 300 mM NaCl, 1 mM DTT, 10% glycerol, 20 C. EMSA/footprint: 50 mM Tris-HCl pH 7.5, 10 mM NaCl, 0.5 M Mg acetate (so in the source), 0.1 mM …
T3 sequence 1: B2 chain
T3 sequence 2: B1 chain

[5] = biological target: T2, PtxS (Pseudomonas aeruginosa PAO1); assay: DNase I footprinting; conditions: ITC: 50 mM HEPES pH 7.9, 300 mM NaCl, 1 mM DTT, 10% glycerol, 20 C. EMSA/footprint: 50 mM Tris-HCl pH 7.5, 10 mM NaCl, 0.5 M Mg acetate (so in the source), 0.1 mM …
PtxR [6] = biological target: B2; assay: ITC; free proteins; 50 µM PtxS in 3.2 µl aliquots into PtxR (3 µM by the legend); 20°C, 50 mM HEPES pH 7.9, 300 mM NaCl, 1 mM dithiothreitol, 10% glycerol; two binding site model; conditions: both partners purified
PtxR [7] = biological target: B2; assay: ITC; 5 µM PtxR saturated beforehand with 50 µM duplex DNA of P_(toxA) holding the PtxR operator, titrated with 50 µM PtxS; 20°C, 50 mM HEPES pH 7.9, 300 mM NaCl, 1 mM dithiothreitol, 10% glycerol; two binding site model; conditions: both partners purified
PtxS [8] = biological target: B1; assay: native gel or EMSA; native polyacrylamide gel, 10 µM homogeneous PtxS, PtxR or both mixed, 1 h at 120 V, Coomassie stain, confirmed by western blot with an anti-His tag antibody; conditions: both partners purified
PtxR K39A = PtxR K39A (Pseudomonas aeruginosa PAO1, UniProt P72131 1-312, K39A); assay: ITC; ITC: 50 mM HEPES pH 7.9, 300 mM NaCl, 1 mM DTT, 10% glycerol, 20 C. EMSA/footprint: 50 mM Tris-HCl pH 7.5, 10 mM NaCl, 0.5 M Mg acetate (so in the source), 0.1 mM EDTA, 1 mM DTT, 5% glycerol, 30 C; EMSA with 20 ug/ml poly(dIC), 200 ug/ml BSA; conditions: protein: recombinant; tags: C-terminal His6 (pET24b); chain copies: 4; blunt
PtxS [9] = biological target: T4, PtxS (Pseudomonas aeruginosa PAO1, UniProt G3XD97 1-340); assay: as above; conditions: protein: recombinant; tags: C-terminal His6 (pET24b); chain copies: 2; blunt
T4 sequence: B1 chain

PtxR [10] = biological target: T5, PtxR (Pseudomonas aeruginosa PAO1, UniProt P72131 1-312); assay: as above; conditions: protein: recombinant; tags: C-terminal His6 (pET24b); chain copies: 4; blunt
T5 sequence: B2 chain

PtxR R47A = PtxR R47A (Pseudomonas aeruginosa PAO1, UniProt P72131 1-312, R47A); assay: as above; conditions: protein: recombinant; tags: C-terminal His6 (pET24b); chain copies: 4; blunt
PtxR D52A = PtxR D52A (Pseudomonas aeruginosa PAO1, UniProt P72131 1-312, D52A); assay: as above; conditions: protein: recombinant; tags: C-terminal His6 (pET24b); chain copies: 4; blunt
PtxR E44A = PtxR E44A (Pseudomonas aeruginosa PAO1, UniProt P72131 1-312, E44A); assay: as above; conditions: protein: recombinant; tags: C-terminal His6 (pET24b); chain copies: 4; blunt
PtxR S40A = PtxR S40A (Pseudomonas aeruginosa PAO1, UniProt P72131 1-312, S40A); assay: as above; conditions: protein: recombinant; tags: C-terminal His6 (pET24b); chain copies: 4; blunt

CAACTGATCGTTCGCGGCTCGACCCATCCACGCGGCTAGCGGCCCGCCGCCGGCGCGTTGCCGGCGGCTTTCGCACGGCTTGAAATGAAACCGGTTTCAGAGGATCGCCAATGTCCCTTCACCCCGTCTCCATCAGTCTTTCCAGCTATGGCGCGGACCTCGTTCGCAGTCGCGGCCAGGCCAGCTTCCTGCCCTTGCTGGCGATGGCCGGCGCGCAGCGCGTGGAACTGCGCGAGGAACTCTTCGCCGGCCCGCCGGATACCGAGGCGCTGACCGCCGCCATCCAGTT (double strand) [Pkgu promoter fragment]
binding [1]: binds | binding [2]: binds

CCGTTGACGGCCTTGTCATCGGGCATGGTGGGGTCCTCTCTGGATCATCACGGTTTCGTCTTTCTGATAATGATTAGCAGGCTAATTATAAGTTCATGTGTCACGTTGAAAAAACGTTTCAGCAAGGATTCAGGCAGGCCAATACCGGCAAGTGAAGCAGAACGGCGCGCCGGGCGTCGGCCCGGCGCGGCCTTCAGGCGCCTCGCCGTCGCGCCCAGGCCGAAGGATTGACCAGGTTCAGCGGCC (double strand) [Pgad promoter fragment]
binding [1]: binds | binding [2]: binds | binding [3]: binds | binding [4]: binds | binding [5]: binds

B1
KD of the first, high affinity event (PtxR [6]): 12 ± 3 nM | KD of the second, lower affinity event (PtxR [6]): 102 ± 10 nM | dH of the first, high affinity event (PtxR [6]): -17.8 ± 0.9 kcal/mol | dH of the second, lower affinity event (PtxR [6]): -9.1 ± 0.5 kcal/mol | stoichiometry N (PtxR [6]): 1.02 | KD of the first event, PtxR bound to DNA (PtxR [7]): ~1700 nM | KD of the second event, PtxR bound to DNA (PtxR [7]): ~8200 nM

B2
binding result (PtxS [8]): binds

B3
binding result (PtxR K39A): no binding | binding result (PtxS [9]): no binding | Kd (PtxR [10]): 164 ± 6 nM | Kd (PtxR R47A): 240 ± 11 nM | binding result (PtxR D52A): no binding | binding result (PtxR E44A): no binding | binding result (PtxR S40A): no binding

B4
binding result (PtxR [10]): no binding

Source: PMC3402500, “Genes for Carbon Metabolism and the ToxA Virulence Factor in Pseudomonas aeruginosa Are Regulated through Molecular Interactions of PtxR and PtxS” (PLoS ONE, 2012)
